Each block holds one binder with its values, some of them ahead of it.
Key:
[1] = molecular target: T1, human RAGE-Fc fusion protein (human, UniProt Q15109 23-344); assay: antibody competition ELISA on hRAGE-Fc; competitor biotinylated XT-M4; sheet note: N52D (labeled N71D) is glycosylation mutant in CDR2 of HC
T1 construct: also called hRAGE-Fc; huRAGE-Fc; not shown: Fc domain of human IgG
Description: (§1) ELISA plates were coated overnight with 1 ug/ml human RAGE-Fc. […] Briefly, plates were coated overnight with 1 ug/ml human RAGE-Fc.

[2] = molecular target: T1, human RAGE-Fc fusion protein; assay: direct binding ELISA, coated hRAGE-Fc
Description: (§2) Antibodies were purified from hybridoma supernatants using standard procedures. Purified antibodies were evaluated for binding to soluble forms of RAGE with the use of ELISA. […] After washing and blocking with PBS containing 1% BSA and 0.05% Tween-20, 100 ul of sample (samples were in several forms: diluted immune serum, hybridoma supernatants, or purified antibodies, as indicated) was added and incubated for 1 hour at room temperature. The plates were washed with PBS, pH 7.2 and bound anti-RAGE antibodies were detected with the use of peroxidase-conjugated goat, anti-mouse IgG (H+L) (IgG) (Pierce, Rockford, Ill.) followed by incubation with the substrate TMB (BioFX Laboratories Owings Mills, Md. Laboratories). Absorbance values were determined at 450 nm in a spectrophotometer. The concentrations of monoclonal antibodies were determined with the use of peroxidase-labeled goat, anti-mouse IgG (Fcγ) (Pierce Rockford, Ill.) and a standard curve was generated by a purified, isotype-matched mouse IgG.

[3] = molecular target: T2, human RAGE V-region-Fc fusion protein (human, UniProt Q15109 23-118); assay: direct binding ELISA, coated hRAGE V-region-Fc
T2 construct: also called hRAGE V-domain-Fc; hRAGE-V-Fc (CM); not shown: Fc domain of human IgG
Description: as §2

[4] = molecular target: T1, human RAGE-Fc fusion protein; assay: BIACORE direct binding, hRAGE-Fc immobilized
Description: The binding of selected murine and rat anti-RAGE antibodies to human and murine RAGE and to the V domains of human and murine RAGE was analyzed by BIACORE® direct binding assay. […] Solution of the anti-RAGE antibodies at two concentrations, 50 and 100 nm, were run over the immobilized RAGE-Fc proteins in duplicate. BIACORE™ technology utilizes changes in the refractive index at the surface layer upon binding of the anti-RAGE antibodies to the immobilized RAGE antigen. Binding is detected by surface plasmon resonance (SPR) of laser light refracting from the surface.
The kinetic rate constants (kₐ and kd) and association and dissociation constants (Kₐ and Kd) for the binding of murine and rat anti-RAGE antibodies to human and murine RAGE were determined by BIACORE™ direct binding assay. Analysis of the signal kinetics data for on-rate and off-rate allows the discrimination between non-specific and specific interactions.

[5] = molecular target: T3, soluble human streptavidin-tagged RAGE (human, UniProt Q15109 23-344); assay: BIACORE capture assay, antibody on CM5 chip, hRAGE-SA 0-100 nM in solution
T3 construct: also called hRAGE-SA; human RAGE-strep
Description: The assays were performed by coating antibodies onto a CM5 BIA chip with 5000-7000 RU.

[6] = molecular target: T1, human RAGE-Fc fusion protein; assay: ligand competition ELISA: HMGB1 coated, hRAGE-Fc pre-mixed with mAb, anti-huIgG-HRP; blocked ligand HMGB1
Description: Wells were washed and blocked as described above and exposed to 100 μl of pre-incubated mixtures of RAGE-Fc or TrkB-Fc (a non-specific Fc control), at 0.1 μg/ml, plus various forms of the indicated antibody preparation (dilutions of immune sera, hybridoma supernatants or purified antibodies) for 1 hour at room temperature.

[7] = molecular target: T3, soluble human streptavidin-tagged RAGE; assay: BIACORE capture, hRAGE-SA over captured antibody, steady state affinity, FC3
Description: (§3) The assays were performed by coating anti-human Fc antibodies onto a CM5 BIA chip with 5000 RU (pH 5.0, 7 min.) in flow cells 1-4. Each antibody was captured by flowing at 2.0 μg/ml over the anti-Fc antibodies in flow cells 2-4 (flow cell 1 was used as a reference).

[8] = molecular target: T3, soluble human streptavidin-tagged RAGE; assay: BIACORE capture, hRAGE-SA over captured antibody, steady state affinity, FC4
Description: as §3

[9] = molecular target: T3, soluble human streptavidin-tagged RAGE; assay: BIACORE capture, hRAGE-SA over captured antibody, 1:1 Langmuir global fit, FC2
Description: as §3

[10] = molecular target: T3, soluble human streptavidin-tagged RAGE; assay: BIACORE capture, hRAGE-SA over captured antibody, 1:1 Langmuir global fit, FC3
Description: as §3

[11] = molecular target: T3, soluble human streptavidin-tagged RAGE; assay: BIACORE capture, hRAGE-SA over captured antibody, 1:1 Langmuir global fit, FC4
Description: as §3

[12] = molecular target: T4, murine RAGE-strep tag fusion protein (mouse, UniProt Q62151 23-343); assay: BIACORE capture, SA-Mu RAGE over captured antibody, 1:1 Langmuir global fit, FC2
T4 construct: also called mRAGE-strep; mRAGE-SA
T4 chain: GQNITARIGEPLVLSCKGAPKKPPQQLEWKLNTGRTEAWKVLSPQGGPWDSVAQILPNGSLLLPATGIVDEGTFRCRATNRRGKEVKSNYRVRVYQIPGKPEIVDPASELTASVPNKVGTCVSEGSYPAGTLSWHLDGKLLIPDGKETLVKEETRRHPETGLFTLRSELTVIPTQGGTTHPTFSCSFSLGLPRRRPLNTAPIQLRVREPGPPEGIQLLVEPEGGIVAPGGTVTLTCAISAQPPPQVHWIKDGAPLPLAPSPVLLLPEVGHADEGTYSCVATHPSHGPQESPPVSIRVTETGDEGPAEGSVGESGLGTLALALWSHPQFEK
Description: as §3

[13] = molecular target: T4, murine RAGE-strep tag fusion protein; assay: BIACORE capture, SA-Mu RAGE over captured antibody, 1:1 Langmuir global fit, FC3
Description: as §3

[14] = molecular target: T4, murine RAGE-strep tag fusion protein; assay: BIACORE capture, SA-Mu RAGE over captured antibody, 1:1 Langmuir global fit, FC4
Description: as §3

[15] = molecular target: T3, soluble human streptavidin-tagged RAGE; assay: BIACORE capture, hRAGE-SA over captured antibody, steady state affinity, row Average
Description: as §3

[16] = molecular target: T3, soluble human streptavidin-tagged RAGE; assay: BIACORE capture, hRAGE-SA over captured antibody, 1:1 Langmuir global fit, row Average
Description: as §3

[17] = molecular target: T4, murine RAGE-strep tag fusion protein; assay: BIACORE capture, SA-Mu RAGE over captured antibody, 1:1 Langmuir global fit, row Average
Description: as §3

[18] = molecular target: T3, soluble human streptavidin-tagged RAGE; assay: BIACORE capture, hRAGE-SA over captured antibody, steady state affinity, FC2 (cell circled on the sheet)
Description: as §3

[19] = molecular target: T1, human RAGE-Fc fusion protein; assay: competition ELISA on coated hRAGE-Fc; competitor 12.5 ng/ml biotinylated rat XT-M4
Description: as §1

[20] = molecular target: T1, human RAGE-Fc fusion protein; assay: competition ELISA on coated hRAGE-Fc; competitor 12.5 ng/ml biotinylated rat XT-M4; lower end of the printed range 0.3-0.4; second listing of this pair (r31, beside r26: 0.95)
Description: as §1

[21] = molecular target: T1, human RAGE-Fc fusion protein; assay: competition ELISA on coated hRAGE-Fc; competitor 12.5 ng/ml biotinylated rat XT-M4; upper end of the printed range 0.3-0.4; second listing of this pair (r31, beside r26: 0.95)
Description: as §1

IC50 (read off the curve) [1]: ~0.1 µg/mL
B1: XT-M4 with N52D in the heavy chain variable region (antibody, name in Kabat numbering, V domains shown)
VH: EVQLVESGGGLVQPGRSLKLSCVVSGFTFNNYWMTWIRQTPGKGLEWVASIDNSGDNTYYPDSVKDRFTISRDNAKSTLYLQMNSLRSEDTATYYCTRGGDITTGFDYWGQGVMVTVSS
VL: DIQMTQSPSSMSVSLGDTITITCRASQDVGIYVNWFQQKPGKSPRRMIYRATNLADGVPSRFSGSRSGSIYSLTISSLESEDVADYHCLEFDEHPLTFGSGTKVEIK
notes: Removes the glycosylation site in CDR2; also called XT-M4 N52D

EC50 [2]: 0.09 nM | EC50 [3]: 0.1 nM | Ka [4]: 1.14e+10 M⁻¹ | Kd [4]: 0.0876 nM | koff [4]: 0.000504 s⁻¹ | kon [4]: 5.76e+06 M⁻¹ s⁻¹ | Ka [5]: 9.48e+08 M⁻¹ | Kd [5]: 1.06 nM | koff [5]: 0.00116 s⁻¹ | kon [5]: 1.1e+06 M⁻¹ s⁻¹ | IC50 (read off the curve) [6]: ~0.2 µg/mL
B2: XT-H2 (antibody, mouse IgG1, V domains shown)
VH: QVQLQQSGAELAKPGASVKMSCKASGYTFTTYWMHWVKQRPGQGLYWIGYINPSTGYTEYNQKFKDKATLTADKSSSTAYMQLSSLTSEDSAVYYCARWAGYTIDYWGQGTSVTVSS
VL: DVVLTQTPLSLPVNIGDQASISCKSTKSLLNSDGFTYLDWYLQKPGQSPQLLIYLVSDRFSGVPDRFSGSGSGTDFTLTISRVEAEDLGVYYCFQSNSLPLTFGSGTKLEIK
notes: also called 1hRAGEP3/16; murine anti-huRAGE monoclonal antibody XT-H2

Kd [7]: 24 nM | Kd [8]: 26 nM | Kd [9]: 31.8 nM | koff [9]: 0.00972 s⁻¹ | kon [9]: 306000 M⁻¹ s⁻¹ | Kd [10]: 18.2 nM | koff [10]: 0.0569 s⁻¹ | kon [10]: 3.13e+06 M⁻¹ s⁻¹ | Kd [11]: 20.3 nM | koff [11]: 0.0704 s⁻¹ | kon [11]: 3.47e+06 M⁻¹ s⁻¹ | Kd [12]: 3 nM | koff [12]: 0.0078 s⁻¹ | kon [12]: 2.6e+06 M⁻¹ s⁻¹ | Kd [13]: 2.9 nM | koff [13]: 0.0076 s⁻¹ | kon [13]: 2.6e+06 M⁻¹ s⁻¹ | Kd [14]: 3 nM | koff [14]: 0.0078 s⁻¹ | kon [14]: 2.6e+06 M⁻¹ s⁻¹ | Kd [15]: 25 nM | Kd [16]: 23.4 nM | koff [16]: 0.0457 s⁻¹ | kon [16]: 2.3e+06 M⁻¹ s⁻¹ | Kd [17]: 3 nM | koff [17]: 0.0077 s⁻¹ | kon [17]: 2.6e+06 M⁻¹ s⁻¹ | Kd [18]: 25 nM
B3: XT-M4-V10 (antibody, V domains shown)
VH: EVQLVESGGGLVQPGGSLRLSCAASGFTFNNYWMTWVRQAPGKGLEWVASIDNSGDNTYYPDSVKDRFTISRDNAKNSLYLQMNSLRAEDTAVYYCARGGDITTGFDYWGQGTLVTVSS
VL: DIQMTQSPSSLSASVGDRVTITCRASQDVGIYVNWFQQKPGKAPKRLIYRATNLADGVPSRFSGSGSGTDFTLTISSLQPEDFATYYCLEFDEHPLTFGGGTKVEIK

IC50 [19]: 0.95 µg/mL | IC50 [20]: 0.3 to 0.4 µg/mL | IC50 [21]: 0.3 to 0.4 µg/mL
B4: humanized XT-M4 hVH-V2.0 / hVL-V2.10 (antibody, human IgG1, V domains shown)
VH: EVQLVESGGGLVQPGGSLRLSCAASGFTFNNYWMTWVRQAPGKGLEWVASIDNSGDNTYYPDSVKDRFTISRDNAKNSLYLQMNSLRAEDTAVYYCARGGDITTGFDYWGQGTLVTVSS
VL: DIQMTQSPSSLSASVGDRVTITCRASQDVGIYVNWFQQKPGKAPKRLIYRATNLADGVPSRFSGSGSGTDFTLTISSLQPEDFATYYCLEFDEHPLTFGGGTKVEIK

— US20070286858A1 (Pfizer, published 2007)
